Source: US20160130315A1 (AJOU UNIVERSITY INDUSTRY ACADEMIC COOPERATION FOUNDATION, published 2016)

Target: T1, Fc (human, UniProt P01857-1 104-330 = IgG part, limits assumed)
T1 construct: domain: Fc (hinge-CH2-CH3); Control without TPP; also called control group Fc; antibody heavy-chain constant region
Test: FACS on cells carrying neuropilin-1 and -2

B1: neuropilin-2 expressed on cell surface (receptor, human, UniProt O60462 21-931, looked up)
chain: RGQPDPPCGGRLNSKDAGYITSPGYPQDYPSHQNCEWIVYAPEPNQKIVLNFNPHFEIEKHDCKYDFIEIRDGDSESADLLGKHCGNIAPPTIISSGSMLYIKFTSDYARQGAGFSLRYEIFKTGSEDCSKNFTSPNGTIESPGFPEKYPHNLDCTFTILAKPKMEIILQFLIFDLEHDPLQVGEGDCKYDWLDIWDGIPHVGPLIGKYCGTKTPSELRSSTGILSLTFHTDMAVAKDGFSARYYLVHQEPLENFQCNVPLGMESGRIANEQISASSTYSDGRWTPQQSRLHGDDNGWTPNLDSNKEYLQVDLRFLTMLTAIATQGAISRETQNGYYVKSYKLEVSTNGEDWMVYRHGKNHKVFQANNDATEVVLNKLHAPLLTRFVRIRPQTWHSGIALRLELFGCRVTDAPCSNMLGMLSGLIADSQISASSTQEYLWSPSAARLVSSRSGWFPRIPQAQPGEEWLQVDLGTPKTVKGVIIQGARGGDSITAVEARAFVRKFKVSYSLNGKDWEYIQDPRTQQPKLFEGNMHYDTPDIRRFDPIPAQYVRVYPERWSPAGIGMRLEVLGCDWTDSKPTVETLGPTVKSEETTTPYPTEEEATECGENCSFEDDKDLQLPSGFNCNFDFLEEPCGWMYDHAKWLRTTWASSSSPNDRTFPDDRNFLRLQSDSQREGQYARLISPPVHLPRSPVCMEFQYQATGGRGVALQVVREASQESKLLWVIREDQGGEWKHGRIILPSYDMEYQIVFEGVIGKGRSGEIAIDDIRISTDVPLENCMEPISAFAGENFKVDIPEIHEREGYEDEIDDEYEVDWSNSSSATSGSGAPSTDKEKSWLYTLDPILITIIAMSSLGVLLGATCAGLLLYCTCSYSGLSSRSCTTLENYNFELYDGLKHKVKMNHQKCCSEA
notes: whole, on cells; Endogenous expression; the same cells also carry neuropilin-1; also called NRP2
B1: no binding (tested: 1 µM).
